For 13 substances, response results are on record in paper PMC7262597.

Common to all, as to assay: GST pull-down (autoradiography, quantified)
Experiment [1] has as its target radiolabeled GFP-Sequoia-WT. To be noted: parent: est. 25; read off a plot.
In experiment [2] the target is radiolabeled myc-Sequoia-WT. To be noted: percentage binding relative to 10% of the input; 3 independent experiments; parent: est. 25; read off a plot.
Experiment [3] has as its target GST-Atg8a K46Q (UniProt Q9W2S2). Conditions: percentage binding relative to 10% of the input; 3 independent experiments; parent: est. 25; read off a plot.
Experiment [4] addresses GST-Atg8a-LDS mutant (Y49A) (UniProt Q9W2S2). Conditions: parent: est. 25, read off a plot.
Experiment [5] addresses GST-Atg8a K47Q (UniProt Q9W2S2). To be noted: percentage binding relative to 10% of the input; 3 independent experiments; parent: est. 25; read off a plot.
The target of experiment [6] is GST-Atg8a K46Q Y49A. To be noted: percentage binding relative to 10% of the input; 3 independent experiments; parent: est. 25; read off a plot.
Experiment [7] deals with GST-Atg8a-WT (UniProt Q9W2S2). Conditions: parent: est. 25, read off a plot.
The target in experiment [8] is GST-Atg8a K48Q (UniProt Q9W2S2). To be noted: percentage binding relative to 10% of the input; 3 independent experiments; parent: est. 25; read off a plot.
Setting [9] is: percentage binding relative to 10% of the input, 3 independent experiments.

Chain of GST-Atg8a-WT (Q9W2S2 entry or part of it): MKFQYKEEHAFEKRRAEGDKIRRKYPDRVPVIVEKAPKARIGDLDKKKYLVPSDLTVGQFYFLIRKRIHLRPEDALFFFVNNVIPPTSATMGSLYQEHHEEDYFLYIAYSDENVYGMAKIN
Chain of GST-Atg8a-LDS mutant (Y49A) (Q9W2S2 entry or part of it Y49A | Y49A): as the sequence (Q9W2S2 entry or part of it) above, with Y49A counted along it
Chain of GST-Atg8a K48Q (Q9W2S2 entry or part of it K48Q | K48Q): as the sequence (Q9W2S2 entry or part of it) above, with K48Q counted along it
Chain of GST-Atg8a K46Q (Q9W2S2 entry or part of it K46Q | K46Q): as the sequence (Q9W2S2 entry or part of it) above, with K46Q counted along it
Chain of GST-Atg8a K47Q (Q9W2S2 entry or part of it K47Q | K47Q): as the sequence (Q9W2S2 entry or part of it) above, with K47Q counted along it

In the case of GST-Atg8a-WT (from UniProt Q9W2S2) Y49A, the figures for the response in experiment [1] and in experiment [2] were 8 % of binding and 2.7 % Binding, respectively.
With GST-Atg8a-WT (from UniProt Q9W2S2) K48Q, the response in experiment [2] was found to be 12 % Binding.
Consider “m11; m1 Sequoia:Y313A; Sequoia:I316A; Atg8a:K46Q”, for which the response in experiment [3] was 18 % Binding.
For “GST-Atg8a-WT (from UniProt Q9W2S2) K46Q; Y49A”, the response in experiment [2] was 3.6 % Binding.
Regarding GST-Atg8a-WT (from UniProt Q9W2S2) K47Q, the response in experiment [2] turned out to be 24 % Binding.
The same measure, in the same setting: next, GST-Atg8a-WT (from UniProt Q9W2S2) K46Q: 25 % Binding.
In the case of “m9; m1 Sequoia:Y313A; Sequoia:I316A; Atg8a:Y49A”, the response in experiment [4] was 5.6 % of binding.
For the substance “m11; m1 Sequoia:Y313A; Sequoia:I316A; Atg8a:K47Q”, the response in experiment [5] was 12 % Binding.
Take “m11; m1 Sequoia:Y313A; Sequoia:I316A; Atg8a:Y49A”: the response in experiment [4] (setting [9]) came to 2.9 % Binding.
“m11; m1 Sequoia:Y313A; Sequoia:I316A; Atg8a:K46Q; Atg8a:Y49A”: in experiment [6], the response turned out to be 3.2 % Binding.
“radiolabeled myc-Sequoia-WT Y313A; I316A”: the response in experiment [7] (setting [9]) came to 14 % Binding.
With “m11; m1 Sequoia:Y313A; Sequoia:I316A; Atg8a:K48Q”, the response in experiment [8] is 8 % Binding.
Turning to “radiolabeled GFP-Sequoia-WT Y313A; I316A”, the response in experiment [7] was 14 % of binding.
